{"source": "patent US6949506B2", "about": "“Relaxin-like factor and methods and uses thereof” (BAS Medical, Inc., priority 1995, dated 2005)", "molecules": {"B1": {"name": "human relaxin (ligand)", "chain 1": "QLYSALANKCCHVGCTKRSLARFC", "chain 2": "DSWMEEVIKLCGRELVRAQIAICGMSTWS"}, "B2": {"name": "human relaxin-like factor (RLF), synthetic (ligand)", "chain 1": "AAATNPARYCCLSGCTQQDLLTLCPY", "chain 2": "PTPEMREKLCGHHFVRALVRVCGGPRWSTEA"}}, "key": {"[1]": {"system": "crude membrane preparations of leg muscles, kidneys, liver, brain, and uterus", "assay": "Tissue specificity of 125I-RLF binding", "design": "species or system mouse", "conditions": "skeletal muscle, kidney and liver tested, female estrogen primed mice", "protocol": "FIG. 6. FIG. 6 depicts the tissue distribution of RLF receptors in female estrogen primed mice as measured in vitro in a receptor-binding assay.\nTissue specificity was determined using crude membrane preparations of leg muscles, kidneys, liver. brain, and uterus (of estrogen primed mice). The crude membranes were prepared as described for relaxin. Binding was based on protein concentration determined by Lowry."}, "[2]": {"system": "collagen expression, rheumatoid synovial fibroblasts (Strain No. RSF64)", "assay": "Inhibition of collagen expression by synovial fibroblasts", "assay_type": "cell-based, human", "protocol": "The method for detecting and measuring collagen formation in the presence of relaxin described in Unemori and Amento, 1990, J. Biol. Chem. 265:10681-685 has been modified as follows to determine the ability of RLF, in vitro, to modulate the expression of collagen. Materials and Methods. Rheumatoid synovial fibroblasts (Strain No. […] The cells were simultaneously biosynthetically labelled with ^3H=[…] μCi/ml) in the presence of ascorbate and BAPN. After 24 hours, the conditioned media were collected and electrophoresed on 4-12% polyacrylamide gels (NOVEX) under reducing conditions. Gels were enhanced, dried, and exposed to X-ray films for 1-2 weeks. Collagen bands were identified on the X-ray films as bacterial collagenase-sensitive, proline-incorporating bands between 95-200 kDa. Band density was quantified by scanning densitometry and used as estimates of collagen expression."}, "[3]": {"target": "RLF receptor of mouse uterus (mouse)", "sequence (Q91ZZ5 whole entry)": "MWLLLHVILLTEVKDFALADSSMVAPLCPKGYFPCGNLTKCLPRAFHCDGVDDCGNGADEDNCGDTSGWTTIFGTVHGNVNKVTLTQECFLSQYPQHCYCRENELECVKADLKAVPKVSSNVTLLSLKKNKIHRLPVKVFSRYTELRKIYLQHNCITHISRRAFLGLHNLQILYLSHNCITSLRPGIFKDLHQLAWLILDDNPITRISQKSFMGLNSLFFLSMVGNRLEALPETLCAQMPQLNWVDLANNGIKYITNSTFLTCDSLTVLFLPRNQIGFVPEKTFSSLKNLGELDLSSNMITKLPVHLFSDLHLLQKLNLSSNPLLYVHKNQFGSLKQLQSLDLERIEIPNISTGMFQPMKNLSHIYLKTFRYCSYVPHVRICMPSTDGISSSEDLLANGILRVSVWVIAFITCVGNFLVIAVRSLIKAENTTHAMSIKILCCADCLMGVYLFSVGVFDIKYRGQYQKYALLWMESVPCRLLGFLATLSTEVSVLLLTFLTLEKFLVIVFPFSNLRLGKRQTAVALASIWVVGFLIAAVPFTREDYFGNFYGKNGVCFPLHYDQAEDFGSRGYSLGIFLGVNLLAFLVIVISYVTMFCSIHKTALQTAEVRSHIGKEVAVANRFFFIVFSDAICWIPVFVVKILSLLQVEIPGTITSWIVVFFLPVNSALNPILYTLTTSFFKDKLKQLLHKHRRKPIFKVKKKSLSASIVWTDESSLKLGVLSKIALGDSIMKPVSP", "assay": "displacement of 125I-RLF tracer, mouse uterus crude membranes; amount of competitor at 50% binding"}, "[4]": {"target": "RLF receptor of mouse brain (mouse)", "assay": "displacement of 125I-RLF tracer, mouse brain crude membranes; amount of competitor at 50% binding"}, "[5]": {"target": "mouse brain relaxin receptor (mouse)", "assay": "displacement of porcine relaxin tracer, mouse brain crude membranes; amount of competitor at 50% binding"}, "[6]": {"target": "mouse uterine relaxin receptor (mouse)", "sequence (Q6R6I7 whole entry)": "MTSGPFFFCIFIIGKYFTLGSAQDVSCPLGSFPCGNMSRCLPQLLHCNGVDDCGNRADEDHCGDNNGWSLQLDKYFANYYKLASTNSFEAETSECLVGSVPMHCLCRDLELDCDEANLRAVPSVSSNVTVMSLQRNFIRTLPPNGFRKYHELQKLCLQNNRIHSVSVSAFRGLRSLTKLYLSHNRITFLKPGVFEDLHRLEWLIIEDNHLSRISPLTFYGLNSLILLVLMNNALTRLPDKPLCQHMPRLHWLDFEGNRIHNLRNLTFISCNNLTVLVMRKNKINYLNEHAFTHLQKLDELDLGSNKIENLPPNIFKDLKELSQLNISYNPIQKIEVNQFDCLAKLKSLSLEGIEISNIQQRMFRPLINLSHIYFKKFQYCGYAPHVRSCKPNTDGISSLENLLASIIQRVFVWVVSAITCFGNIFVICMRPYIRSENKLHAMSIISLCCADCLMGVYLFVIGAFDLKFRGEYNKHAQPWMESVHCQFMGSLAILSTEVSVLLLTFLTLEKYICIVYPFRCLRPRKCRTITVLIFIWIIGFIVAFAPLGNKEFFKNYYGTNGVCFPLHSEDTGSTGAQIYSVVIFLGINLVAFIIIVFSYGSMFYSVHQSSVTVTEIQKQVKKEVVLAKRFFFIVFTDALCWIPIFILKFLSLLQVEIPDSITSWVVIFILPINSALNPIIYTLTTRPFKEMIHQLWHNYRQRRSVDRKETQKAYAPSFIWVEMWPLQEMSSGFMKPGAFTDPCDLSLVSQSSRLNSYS", "assay": "displacement of porcine relaxin tracer, mouse uterus crude membranes; amount of competitor at 50% binding"}, "[7]": {"target": "mouse brain relaxin receptor (mouse)", "assay": "displacement of porcine relaxin tracer, mouse brain crude membranes"}}, "note": "Positions of bridges follow the written chain, without caps; N, C: chain ends. Chains are numbered I, II in the order given. No end group written: not given here.", "data": [{"molecule": "^125I-RLF: 125I-labeled RLF used as tracer (chain 1 AAATNPARYCCLSGCTQQDLLTLCPY; chain 2 PTPEMREKLCGHHFVRALVRVCGGPRWSTEA; disulfide I:11-II:10; cysteine pairing not given here; also: 125I-labeled (site not given here))", "values": [{"measurement": "tissues showing specific binding", "setting": "[1]", "result": "only the brain- and the uterus membrane preparation showed specific binding"}]}, {"molecule": "TGF-β [reference compound]", "values": [{"measurement": "increase of collagen expression over untreated fibroblasts", "setting": "[2]", "result": 3.75, "unit": "fold"}]}, {"molecule": "B1", "values": [{"measurement": "50% Binding", "setting": "[3]", "result": 800, "unit": "ng"}, {"measurement": "50% Binding", "setting": "[4]", "result": 1000, "unit": "ng"}, {"measurement": "50% Binding", "setting": "[5]", "result": 1, "unit": "ng"}, {"measurement": "50% Binding", "setting": "[6]", "result": 1, "unit": "ng"}]}, {"molecule": "B2", "values": [{"measurement": "50% Binding", "setting": "[3]", "result": 0.3, "unit": "ng"}, {"measurement": "50% Binding", "setting": "[4]", "result": 0.3, "unit": "ng"}, {"measurement": "50% Binding", "setting": "[5]", "result": 200, "unit": "ng"}, {"measurement": "excess that displaces 50% of the relaxin tracer", "setting": "[7]", "result": 100, "unit": "fold excess"}, {"measurement": "50% Binding", "setting": "[6]", "result": 10000, "unit": "ng"}]}]}
